Target: fibrinogen complex (FC) component of TISSEEL VH S/D
Assay: SPR; FC coupled to sensor chip, PDGF-AB as analyte in PBS pH 7.4; KD = Koff/Kon by two methods

Kd: 342 nM
Substance: recombinant human PDGF-AB (from UniProt P04085 87-211; P01127 82-190) (ligand)
